From US20050032695A1
Where two headings read alike, the source gives them in different places.

Experiments:
Assay in all cases: cell-based or functional assay
[1] = biological target: adenylyl cyclase (AC) in rat spinal cord lysates/membranes (rat)
[2] = biological target: adenylyl cyclase (AC) in rat dorsal root ganglia (DRG) lysates (rat)
[3] = biological target: adenylyl cyclase (AC) in rat spinal cord lysates/membranes (rat); remark: listed apart in the source

- inhibition of Gαs-stimulated AC activity, spinal cord lysates of control animals, 30 nM PAM [1]: 50%
- inhibition of Gαs-stimulated AC activity, DRG lysates, 30 nM PAM [2]: 32%
- inhibition of Gαs-stimulated AC activity, spinal cord lysates of animals treated for 1 hour with formalin, 30 nM PAM [3]: 25%
- inhibition of Gαs-stimulated AC activity, spinal cord lysates of control animals, 30 nM PAM [3]: 49%
- inhibition of Gαs-stimulated AC activity, spinal cord lysates of rats 96 hours after zymosan injection, 30 nM PAM [3]: 70%
- inhibition of Gαs-stimulated AC activity, spinal cord preparations of zymosan-treated animals [3]: 75%
Substance: PAM (Protein Associated with Myc), full length, purified from HeLa cells (from UniProt O75592 1-4678)
